Test results reported in PMC8990529.
One block for each molecule: values may come before it.

Experiments:
[1] = tested on: G4-forming KRAS oligo (32R), unlabeled (DNA, G4) AGGGCGGTGTGGGAAGAGGGAAGAGGGGGAGG; assay: UV-Vis absorption titration, Scatchard plot; conditions: 50 mM KCl; 10 mM Tris-HCl pH 7.5, 1 mM EDTA, RT; 4 µM TMPyP4, oligo 0-1.8 µM; specific site
[2] = tested on: anti-G4 antibody clone 1H6 (mouse); assay: fluorescence polarization; conditions: FP: 50 mM Tris-HCl pH 7.5, 50 mM KCl, 1 mM MgCl2, 1 mM DTT, 0.1 mM EDTA, 10 nM oligo, 30 min RT, read at 25 C; Trp quenching: same buffer, 500 nM APE1, 20 C
GST-APE1 1-42 = molecular target: T1, GST-APE1 1-42 (human, UniProt P27695 1-42); assay: fluorescence polarization; 50 mM KCl, 1 mM MgCl2; no measurable affinity; FP: 50 mM Tris-HCl pH 7.5, 50 mM KCl, 1 mM MgCl2, 1 mM DTT, 0.1 mM EDTA, 10 nM oligo, 30 min RT, read at 25 C; Trp quenching: same buffer, 500 nM APE1, 20 C; conditions: protein: recombinant; tags: GST; label: 5'-6-FAM; parallel G4 (CD), prefolded in 50 mM KCl
T1 chain: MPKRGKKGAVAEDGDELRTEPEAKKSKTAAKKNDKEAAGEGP

APE1 WT [3] = molecular target: T2, APE1 WT (human, UniProt P27695 1-318); assay: fluorescence polarization; 50 mM KCl, 1 mM MgCl2; FP: 50 mM Tris-HCl pH 7.5, 50 mM KCl, 1 mM MgCl2, 1 mM DTT, 0.1 mM EDTA, 10 nM oligo, 30 min RT, read at 25 C; Trp quenching: same buffer, 500 nM APE1, 20 C; conditions: protein: recombinant; label: 5'-6-FAM; parallel G4 (CD), prefolded in 50 mM KCl
T2 sequence (P27695 whole entry): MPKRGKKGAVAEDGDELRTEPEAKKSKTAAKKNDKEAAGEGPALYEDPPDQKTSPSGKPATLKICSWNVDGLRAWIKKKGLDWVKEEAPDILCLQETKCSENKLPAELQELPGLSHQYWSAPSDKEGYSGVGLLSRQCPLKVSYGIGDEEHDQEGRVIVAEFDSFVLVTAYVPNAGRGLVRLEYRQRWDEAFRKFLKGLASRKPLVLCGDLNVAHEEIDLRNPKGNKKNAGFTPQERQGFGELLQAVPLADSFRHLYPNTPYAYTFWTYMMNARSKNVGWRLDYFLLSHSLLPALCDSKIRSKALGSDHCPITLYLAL

APE1 NΔ42 = APE1 NΔ42 (human, UniProt P27695 43-318, del1-42); assay: as above; conditions: protein: recombinant; label: 5'-6-FAM; parallel G4 (CD), prefolded in 50 mM KCl
Chain of APE1 NΔ42 (P27695 43-318, stated change not applied): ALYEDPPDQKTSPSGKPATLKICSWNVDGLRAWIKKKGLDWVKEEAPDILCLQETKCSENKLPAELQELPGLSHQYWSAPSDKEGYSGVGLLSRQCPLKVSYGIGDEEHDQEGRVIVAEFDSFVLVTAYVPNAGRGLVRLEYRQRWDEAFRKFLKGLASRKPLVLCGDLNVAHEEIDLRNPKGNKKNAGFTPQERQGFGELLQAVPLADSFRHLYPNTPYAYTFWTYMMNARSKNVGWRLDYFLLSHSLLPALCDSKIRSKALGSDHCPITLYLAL

APE1 H309A = APE1 H309A (human, UniProt P27695 1-318, H309A); assay: as above; conditions: protein: recombinant; label: 5'-6-FAM; parallel G4 (CD), prefolded in 50 mM KCl
Chain of APE1 H309A (P27695 whole entry H309A): as the sequence (P27695 whole entry) above, with H309A counted along it

APE1 WT [4] = molecular target: T2, APE1 WT; assay: competition (fluorescence polarization; printed as EC50); 640 nM APE1, 10 nM 6-FAM G4-forming KRAS oligo as probe; FP: 50 mM Tris-HCl pH 7.5, 50 mM KCl, 1 mM MgCl2, 1 mM DTT, 0.1 mM EDTA, 10 nM oligo, 30 min RT, read at 25 C; Trp quenching: same buffer, 500 nM APE1, 20 C; conditions: protein: recombinant; parallel G4 (CD), prefolded in 50 mM KCl
APE1 WT [5] = molecular target: T2, APE1 WT; assay: tryptophan fluorescence quenching (Scatchard); 500 nM APE1, 50 mM KCl, 1 mM MgCl2, 20 C; FP: 50 mM Tris-HCl pH 7.5, 50 mM KCl, 1 mM MgCl2, 1 mM DTT, 0.1 mM EDTA, 10 nM oligo, 30 min RT, read at 25 C; Trp quenching: same buffer, 500 nM APE1, 20 C; conditions: protein: recombinant; parallel G4 (CD), prefolded in 50 mM KCl
APE1 WT [6] = molecular target: T2, APE1 WT; assay: fluorescence polarization; 50 mM KCl, 1 mM MgCl2; no measurable affinity; FP: 50 mM Tris-HCl pH 7.5, 50 mM KCl, 1 mM MgCl2, 1 mM DTT, 0.1 mM EDTA, 10 nM oligo, 30 min RT, read at 25 C; Trp quenching: same buffer, 500 nM APE1, 20 C; conditions: protein: recombinant; label: 5'-6-FAM; no parallel G4 by CD

Kd [1]: 0.011 µM
Molecule: C[n+]1ccc(-c2c3nc(c(-c4cc[n+](C)cc4)c4ccc([nH]4)c(-c4cc[n+](C)cc4)c4nc(c(-c5cc[n+](C)cc5)c5ccc2[nH]5)C=C4)C=C3)cc1

Molecule: AGGGCGGTGTGGGAAGAGGGAAGAGGGGGAGG [G4-forming KRAS oligo (32R), 6-FAM]
Kd [2]: 0.0005 µM

Molecule: AGGGCGGTGTGGGAAGAGGGAAGAGGGGGAGG (structured_DNA) [G4-forming KRAS oligo (32R), 6-FAM]
binding result (GST-APE1 1-42): no binding | Kd (APE1 WT [3]): 0.031 ± 0.003 µM | Kd (APE1 NΔ42): 0.313 ± 0.012 µM | Kd (APE1 H309A): 0.152 ± 0.025 µM

Molecule: AGGGCGGTGTGGGAAGAGGGAAGAGGGGGAGG (structured_DNA) [G4-forming KRAS oligo (32R), unlabeled]
IC50 (APE1 WT [4]): 2.3 ± 1.5 µM | Kd (APE1 WT [5]): 0.012 µM

Molecule: AGTTCGGTGTGTTAAGAGTTAAGAGTTGGAGG (ssDNA) [non-G4-forming KRAS oligo, 6-FAM]
binding result (APE1 WT [6]): no binding
